These results are taken from US20050065327A1.

For test [1], the target named is human IL-13 (recombinant, bacterially derived, Peprotech) (human) (UniProt P35225). The experiment in a line: cell-based or functional assay.
In test [2] the target is native (naturally occurring) human IL-13 released from HDLM-2 cells (human) (UniProt P35225). The experiment in a line: cell-based or functional assay.
native (naturally occurring) human IL-13 released from HDLM-2 cells (human), sequence (P35225 other isoform, or with tags, fused parts or gaps): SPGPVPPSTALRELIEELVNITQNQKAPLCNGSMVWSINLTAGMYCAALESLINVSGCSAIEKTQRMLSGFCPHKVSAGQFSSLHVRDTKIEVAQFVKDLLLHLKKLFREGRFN

human IL-13 (recombinant, bacterially derived, Peprotech) (human), sequence (P35225 other isoform, or with tags, fused parts or gaps): as above

In the case of “JES10-5A2 (commercial anti-human IL-13 antibody, rat IgG1, Biosource)”, in test [1], the IC50, TF-1 cell proliferation assay was 0.471 nM and the IC50, eotaxin release from NHLF was 0.623 nM. Besides, in test [2], the IC50, HDLM-2 cell proliferation assay amounted to 10.7 nM.
Taken in the same sequence, the figures for “B-B13 (commercial anti-human IL-13 antibody, mouse IgG1, Euroclone)” were 1.02 nM, 0.219 nM and 16.7 nM.
